Source: patent US20090196872A1 (KIRIN BEER, published 2009)

T1: OVA (UniProt P01012 2-386)
T1 construct: also called ovalbumin
T1 sequence: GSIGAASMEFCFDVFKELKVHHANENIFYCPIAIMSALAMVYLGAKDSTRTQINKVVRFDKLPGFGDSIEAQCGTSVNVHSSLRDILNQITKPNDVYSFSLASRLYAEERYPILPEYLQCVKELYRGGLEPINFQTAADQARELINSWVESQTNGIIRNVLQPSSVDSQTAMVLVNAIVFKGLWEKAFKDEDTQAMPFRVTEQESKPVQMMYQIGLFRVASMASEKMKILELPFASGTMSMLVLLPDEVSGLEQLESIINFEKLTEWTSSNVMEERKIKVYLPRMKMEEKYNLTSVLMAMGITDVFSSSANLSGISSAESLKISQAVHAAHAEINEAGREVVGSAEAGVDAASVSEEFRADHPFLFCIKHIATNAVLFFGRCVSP

B1: human anti-M2 monoclonal antibody no. Z3G1 (recombinant IgG1 type Z3, CHO; ATCC PTA-5967) (antibody, V domains shown)
VH: QVQLVQSGAEVKKPGASVKVSCKASGYTFTSYGISWVRQAPGQGLEWMGWISAYNGNTNYAQKLQGRVTMTTDTSTSTAYMELRSLRSDDTAVYYCARAAAGGYFQHWGQGTLVTVSS
VL: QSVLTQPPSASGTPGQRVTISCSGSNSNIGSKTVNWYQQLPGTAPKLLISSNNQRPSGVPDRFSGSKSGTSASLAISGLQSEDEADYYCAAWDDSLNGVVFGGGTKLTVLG
B2: human anti-M2 antibody Z3 (original, IgG3, hybridoma 113Z-3) (antibody, V domains shown)
VH: B1 VH
VL: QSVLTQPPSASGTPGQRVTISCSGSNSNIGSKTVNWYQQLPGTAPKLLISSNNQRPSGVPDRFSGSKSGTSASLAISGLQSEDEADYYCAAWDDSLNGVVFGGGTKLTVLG

Tests used:
[1] = molecular target: T2, bovine serum albumin (bovine, UniProt P02769 25-607); experiment: ELISA; positive = more than 2-fold OD450 of control
T2 construct: carrier for immunization
T2 sequence (P02769 25-607 limits assumed): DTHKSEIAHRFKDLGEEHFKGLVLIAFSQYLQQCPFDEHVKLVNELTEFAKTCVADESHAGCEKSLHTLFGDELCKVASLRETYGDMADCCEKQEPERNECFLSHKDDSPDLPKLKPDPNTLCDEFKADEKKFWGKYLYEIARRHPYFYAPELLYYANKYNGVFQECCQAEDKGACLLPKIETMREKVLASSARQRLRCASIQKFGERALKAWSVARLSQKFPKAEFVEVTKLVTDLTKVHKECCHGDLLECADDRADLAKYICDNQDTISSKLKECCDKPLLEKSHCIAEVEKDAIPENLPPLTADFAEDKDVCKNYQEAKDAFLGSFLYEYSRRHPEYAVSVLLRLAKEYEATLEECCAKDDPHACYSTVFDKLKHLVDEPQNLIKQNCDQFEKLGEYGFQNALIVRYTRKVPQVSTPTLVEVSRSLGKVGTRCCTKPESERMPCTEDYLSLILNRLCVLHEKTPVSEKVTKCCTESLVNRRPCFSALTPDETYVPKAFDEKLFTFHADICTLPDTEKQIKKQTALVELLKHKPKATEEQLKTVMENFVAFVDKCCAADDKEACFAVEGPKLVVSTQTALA

[2] = molecular target: T1, OVA; experiment: as above
[3] = molecular target: M2GHTGKS peptide (influenza A virus); experiment: peptide ELISA
Description: (§1) ELISA: Antibody titers and antibody specificity as well as antibody production by hybridomas were determined by ELISA. […] After washing twice with PBS/0.1% Tween 20, plates were blocked with PBS/1% BSA (Sigma, St. Louis, Mo.) at 37° C. for 30 min., the antibody or serum was added to the wells and the plates were incubated at 37° C. for 1 hr. After washing four times, diluted HRP conjugated goat anti-human Immunoglobulin gamma chain specific antibody (Jackson Immunoresearch Laboratory, West Grove, Pa.) was added to the wells and incubated for 1 hr at 37° C. After washing four times, TMB substrate solution (DAKO, CA) was added and incubated for 30 min at room temperature. The optical density at 450 nm was measured by a microplate reader.

[4] = molecular target: M2LGS peptide (influenza A virus); experiment: peptide ELISA, grade relative to wild-type M2
Description: as §1

[5] = molecular target: M2EG peptide (influenza A virus); experiment: peptide ELISA, grade relative to wild-type M2
Description: as §1

[6] = molecular target: M2TGEK peptide (influenza A virus); experiment: peptide ELISA, grade relative to wild-type M2
Description: as §1

[7] = molecular target: M2KGENS peptide (influenza A virus); experiment: peptide ELISA, grade relative to wild-type M2
Description: as §1

[8] = molecular target: M2TGS peptide (influenza A virus); experiment: peptide ELISA, grade relative to wild-type M2
Description: as §1

[9] = molecular target: M2TDGEKS peptide (influenza A virus); experiment: peptide ELISA, grade relative to wild-type M2
Description: as §1

[10] = molecular target: M2HTGEKS peptide (influenza A virus); experiment: peptide ELISA, grade relative to wild-type M2
Description: as §1

[11] = molecular target: T2, bovine serum albumin; experiment: ELISA

Row | Binder | binding result [1] | binding result [2] | binding result [3] | binding result [4] | binding result [5] | binding result [6] | binding result [7] | binding result [8] | binding result [9] | binding result [10] | binding result [11]
1 | B1 | no binding | no binding | no binding (tested: <10% of binding to wild-type M2 peptide) | binds | binds | binds | binds | binds | binds | binds | 
2 | B2 |  |  |  |  |  |  |  |  |  |  | no binding
